Reference: paper PMC3977576 (Biochemistry, 2014)

Target: the molecule itself
Experiment: SEC-MALS

B1: IKK2EE(11–669) (domain or fragment)
chain: TCGAWEMKERLGTGGFGNVIRWHNQETGEQIAIKQCRQELSPRNRERWCLEIQIMRRLTHPNVVAARDVPEGMQNLAPNDLPLLAMEYCQGGDLRKYLNQFENCCGLREGAILTLLSDIASALRYLHENRIIHRDLKPENIVLQQGEQRLIHKIIDLGYAKELDQGELCTEFVGTLQYLAPELLEQQKYTVTVDYWSFGTLAFECITGFRPFLPNWQPVQWHSKVRQKSEVDIVVSEDLNGTVKFSSSLPYPNNLNSVLAERLEKWLQLMLMWHPRQRGTDPTYGPNGCFKALDDILNLKLVHILNMVTGTIHTYPVTEDESLQSLKARIQQDTGIPEEDQELLQEAGLALIPDKPATQCISDGKLNEGHTLDMDLVFLFDNSKITYETQISPRPQPESVSCILQEPKRNLAFFQLRKVWGQVWHSIQTLKEDCNRLQQGQRAAMMNLLRNNSCLSKMKNSMASMSQQLKAKLDFFKTSIQIDLEKYSEQTEFGITSDKLLLAWREMEQAVELCGRENEVKLLVERMMALQTDIVDLQRSPMGRKQGGTLDDLEEQARELYRRLREKPRDQRTEGDSQEMVRLLLQAIQSFEKKVRVIYTQLSKTVVCKQKALELLPKVEEVVSLMNEDEKTVVRLQEKRQKELWNLLKIACSKVRGPV
Question: With B1 as the protein, how does the “stoichiometry N” value read?
Answer: The value was 2.
